The source of these data is patent publication US20240002434A1 (ICHNOS SCIENCES, published 2024).

The Kd is the concentration at which binding is half-saturated. Broadly, the koff is a measure of how fast the partners let go of each other. For orientation: kon means a measure of how fast the partners come together. Read a low kon as slow association.

Test [1] concerns the target T1, Human EGFR-his (human, UniProt P00533 25-645).
T1 construct: Soluble his-tagged antigen injected as analyte in SPR; also called hsEGFR; not shown: his tag
As to the kind of experiment: SPR, BEAT®3 captured on Protein G chip, EGFR-his as analyte; sample held at pH 11.2 for 4 h; mean of 2.

Test [2] concerns the target T1, Human EGFR-his. As to the kind of experiment: SPR, BEAT®3 captured on Protein G chip, EGFR-his as analyte; sample held at pH 11.2 for 4 h. A general note: SPR reads the build-up and loss of mass on a sensor chip optically.
The target in test [3] is T1, Human EGFR-his. As to the kind of experiment: SPR, BEAT®3 captured on Protein G chip, EGFR-his as analyte; sample held at pH 11.2 for 2 h.
Test [4] has as its target T1, Human EGFR-his. As to the kind of experiment: SPR, BEAT®3 captured on Protein G chip, EGFR-his as analyte; sample held at pH 11.2 for 24 h.
In test [5] the target is T1, Human EGFR-his. As to the kind of experiment: SPR, BEAT®3 captured on Protein G chip, EGFR-his as analyte; sample held at pH 11.2 for 0 h; mean of 2.
In test [6] the target is CD3ε on Jurkat-NFAT responder cells (UniProt P07766 23-207). The test can be described thus: cell-based or functional assay.
Sequence of CD3ε on Jurkat-NFAT responder cells (P07766 23-207): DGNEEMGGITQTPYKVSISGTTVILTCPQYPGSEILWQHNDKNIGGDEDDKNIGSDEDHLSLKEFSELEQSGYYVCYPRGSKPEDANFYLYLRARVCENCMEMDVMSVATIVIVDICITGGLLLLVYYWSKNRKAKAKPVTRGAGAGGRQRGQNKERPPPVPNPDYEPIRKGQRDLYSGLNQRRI
Test [7] deals with EGFR on SK-BR-3 target cells (UniProt P00533 25-1210, limits assumed). The test can be described thus: cell-based or functional assay.
The target in test [8] is T1, Human EGFR-his. The test can be described thus: SPR, BEAT®3 captured on Protein G chip, EGFR-his as analyte; sample held at pH 11.2 for 24 h; mean of 2.
The target of test [9] is T1, Human EGFR-his. As to the kind of experiment: SPR, BEAT®3 captured on Protein G chip, EGFR-his as analyte; sample held at pH 11.2 for 2 h; mean of 2.
The target in test [10] is T1, Human EGFR-his. The test can be described thus: SPR, BEAT®3 captured on Protein G chip, EGFR-his as analyte; sample held at pH 11.2 for 0 h.
The target of test [11] is T1, Human EGFR-his. The test can be described thus: SPR, BEAT®3 sample captured on Protein G chip, EGFR-his as analyte; mean of 4 reference replicates.
Test [12] deals with T2, human CD38 (human, UniProt P28907 43-300, limits assumed).
T2 construct: also called hsCD38; cluster of differentiation 38
The test can be described thus: binding affinity assay; reference sample, no treatment.

Test [13] concerns the target T2, human CD38. The test can be described thus: binding affinity assay; sample after 0.8M Arg, pH 5.5, against RS.
Test [14] concerns the target T2, human CD38. The test can be described thus: surface plasmon resonance; mean KD; high pH hold time 1 h.
The target of test [15] is T2, human CD38. The test can be described thus: binding affinity assay; sample after high pH treatment, against RS.
For test [16], the target named is T2, human CD38. As to the kind of experiment: binding affinity assay; sample after high pH treatment.
Test [17] addresses T2, human CD38. The test can be described thus: binding affinity assay; sample after 0.8M Arg, pH 4.0.
For test [18], the target named is T2, human CD38. As to the kind of experiment: surface plasmon resonance; mean KD; high pH hold time 0 h.
Test [19] concerns the target T2, human CD38. The test can be described thus: surface plasmon resonance; mean KD; PA eluate without high pH treatment.
Test [20] concerns the target T2, human CD38. As to the kind of experiment: binding affinity assay; sample after S/D treatment, against RS.
The target in test [21] is T2, human CD38. The test can be described thus: binding affinity assay; sample after 0.8M Arg, pH 4.0, against RS.
The target in test [22] is T2, human CD38. As to the kind of experiment: binding affinity assay; sample after S/D treatment.
The target of test [23] is T2, human CD38. The test can be described thus: surface plasmon resonance; mean KD; high pH hold time 2 h.
Test [24] deals with T2, human CD38. As to the kind of experiment: binding affinity assay; sample after 0.8M Arg, pH 5.5.
Test [25] deals with T3, human OX40 (human, UniProt P43489 29-214, limits assumed).
T3 construct: The construct used in the Biacore assay is not described; also called OX40R; OX40 receptor
T3 sequence (looked up): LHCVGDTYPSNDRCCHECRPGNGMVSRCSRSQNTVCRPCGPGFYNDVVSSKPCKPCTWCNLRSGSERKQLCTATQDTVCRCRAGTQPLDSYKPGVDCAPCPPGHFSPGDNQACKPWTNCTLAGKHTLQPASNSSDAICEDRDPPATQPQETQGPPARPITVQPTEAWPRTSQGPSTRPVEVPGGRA
The test can be described thus: SPR (Biacore), mean KD; Ab1 after 1 h at pH 11.2.

Test [26] concerns the target T4, human FcγR3a (human, UniProt P08637 17-208, limits assumed).
T4 construct: The construct and allotype (V158/F158) used in the Biacore assay are not described; also called FcgR3a
The test can be described thus: SPR (Biacore), mean KD; Ab1 after 1 h at pH 11.2.

Test [27] has as its target T3, human OX40. As to the kind of experiment: SPR (Biacore), mean KD; Ab1 brought to pH 11.2 and neutralized at once (t0).
The target of test [28] is T4, human FcγR3a. The test is described as above.
For test [29], the target named is T3, human OX40. As to the kind of experiment: SPR (Biacore), mean KD; Ab1 protein A eluate without high pH treatment (reference).
Test [30] deals with T4, human FcγR3a. The test is described as above.
The target of test [31] is T3, human OX40. As to the kind of experiment: SPR (Biacore), mean KD; Ab1 after 2 h at pH 11.2.
In test [32] the target is T4, human FcγR3a. As to the kind of experiment: SPR (Biacore), mean KD; Ab1 after 2 h at pH 11.2.

“And” between values parts separate entries of the source, which are not always exact repeats. Equal values may be shown once.

T4 sequence (P08637 17-208 limits assumed): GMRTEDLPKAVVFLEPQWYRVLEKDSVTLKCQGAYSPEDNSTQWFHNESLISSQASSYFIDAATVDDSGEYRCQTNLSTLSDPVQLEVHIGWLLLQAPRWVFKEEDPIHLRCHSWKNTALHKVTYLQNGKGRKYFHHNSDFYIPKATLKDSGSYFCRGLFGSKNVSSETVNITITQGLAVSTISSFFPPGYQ

B1: BEAT®3 (bispecific antibody, human IgG1, kappa, L234A L235A)
chain 1: EVQLVESGGGLVQPGGSLRLSCAASGFTFNTYAMNWVRQAPGKGLEWVARIRSKYNNYATYYADSVKSRFTISRDDSKNTLYLQMNSLRAEDTAVYYCVRHGNFGNSYVSYFAYWGQGTTVTVSSGGGGSGGGGSGGGGSEIVVTQSPATLSVSPGERATLSCRSSTGAVTESNYANWVQEKPGQAFRGLIGGANKRAPGVPARFSGSLSGDEATLTISSLQSEDFAVYYCALFYSNTWVFGQGTKLEIKGGGGTQVQLQESGPGLVKPSETLSLTCTVSGGSVSSGDYYWTWIRQSPGKGLEWIGHIYYSGNTNYNPSLKSRLTISIDTSKTQFSLKLSSVTAADTAIYYCVRDRVTGAFDIWGQGTMVTVSSASTKGPSVFPLAPSSKSTSGGTAALGCLVKDYFPEPVTVSWNSGALTSGVHTFPAVLQSSGLYSLSSVVTVPSSSLGTQTYICNVNHKPSNTKVDKKVEPKSCDKTHTCPPCPAPEAAGGPSVFLFPPKPKDTLMISRTPEVTCVVVDVSHEDPEVQFKWYVDGVEVHNAKTKPREEQYNSTFRVVSVLTVLHQDWLNGKEYKCKVSNKALPAPIEKTISKTKGQPREPAVYTLPPSREEMTKNQVKLVCLVTGFYPSDIAVEWESSGQPENNYYTTPPMLDSDGSFSLVSWLNVDKSRWQQGNIFSCSVMHEALHNRFTQKSLSLSPG
chain 2: not shown
chain 3: DKTHTCPPCPAPEAAGGPSVFLFPPKPKDTLMISRTPEVTCVVVDVSHEDPEVKFNWYVDGVEVHNAKTKPREEQYNSTYRVVSVLTVLHQDWLNGKEYKCKVSNKALPAPIEKTISKAKGQPREPEVATFPPSRDELTKNQVTLVCLVTGFYPSDIAVEWESNGQPENNYKTDPPLLESDGSFALSSRLRVDKSRWQQGNVFSCSVMHEALHNHYTQKSLSLSPG
Turning to B1, the “Average rel KD” value in test [1] is 1.09 ratio to reference; in [5], 0.98 ratio to reference; in test [8] it was 1.15 ratio to reference; in test [9] it was 1.02 ratio to reference; in test [11], 1 ratio to reference. The “Relative KD R1” value in test [2] was 1.11 ratio to reference; in test [3] it was 1.02 ratio to reference; in test [4] it was 1.17 ratio to reference; in test [10] it was 0.988 ratio to reference. The “Relative potency (%) (Jurkat-NFAT luciferase reporter, EC50reference/EC50sample x 100, reference High pH t0)” value was 97% and 85% and 67% in test [6]; 97% and 85% and 67% in test [7].

B2: BEAT®2 (bispecific antibody, human IgG1, kappa, L234A L235A)
chain 1: not shown
chain 2: QVTLKESGPTLVKPTQTLTLTCTFSGLSLSTSGKGVGWIRQPPGKALEWLAHIWWDDDKRYNPALKSRLTITKDTSKNQVVLTMTNMDPVDTATYYCARIELGRSYVMDYWGQGTLVTVSSASTKGPSVFPLAPSSKSTSGGTAALGCLVKDYFPEPVTVSWNSGALTSGVHTFPAVLQSSGLYSLSSVVTVPSSSLGTQTYICNVNHKPSNTKVDKKVEPKSCDKTHTCPPCPAPEAAGGPSVFLFPPKPKDTLMISRTPEVTCVVVDVSHEDPEVQFKWYVDGVEVHNAKTKPREEQYNSTFRVVSVLTVLHQDWLNGKEYKCKVSNKALPAPIEKTISKTKGQPREPAVYTLPPSREEMTKNQVKLVCLVTGFYPSDIAVEWESSGQPENNYYTTPPMLDSDGSFSLVSWLNVDKSRWQQGNIFSCSVMHEALHNRFTQKSLSLSPG
chain 3: not shown
For B2, the “% deviation EC50” value in test [12] is 0%; in [13], 0.7%; in test [15], 1.7%; in test [20], -15.4%; in [21], 3.5%. In addition, the dissociation constant Kd amounted to 0.442 nM in test [12]; 0.547 nM in test [14]; 0.467 nM in test [16]; 0.507 nM in [17]; 0.504 nM in [18]; 0.483 nM in test [19]. Besides, the Kd in test [22] is 0.341 nM; in test [23], 0.485 nM; in [24] it was 0.439 nM. In addition, the koff in [12] is 0.000457 s⁻¹; in test [16], 0.000483 s⁻¹; in [17] it was 0.000521 s⁻¹; in [22], 0.000376 s⁻¹; in test [24] it was 0.000459 s⁻¹. Also, the kon was found to be 1.03e+06 M⁻¹ s⁻¹ in test [12]; 1.04e+06 M⁻¹ s⁻¹ in [16]; 1.03e+06 M⁻¹ s⁻¹ in test [17]; 1.11e+06 M⁻¹ s⁻¹ in test [22]; 1.05e+06 M⁻¹ s⁻¹ in [24].

B3: Ab1 (antibody, human IgG1, kappa)
chain 1: not shown
chain 2: EIVLTQSPATLSLSPGERATLSCRASSSVSYMHWYQQKPGQAPRPWIYATSNRATGIPARFSGSGSGTDYTLTISSLEPEDFAVYYCQQWSSNPWTFGQGTKVEIKRTVAAPSVFIFPPSDEQLKSGTASVVCLLNNFYPREAKVQWKVDNALQSGNSQESVTEQDSKDSTYSLSSTLTLSKADYEKHKVYACEVTHQGLSSPVTKSFNRGEC
notes: The samples PA eluate, t0, t1 and t2 are the same antibody before and after incubation at pH 11.2 for 0, 1 and 2 h; also called humanized IgG1; PA eluate
Turning to B3, the dissociation constant (Kd) in [25] is 207 nM; in [26], 744 nM; in test [27], 229 nM; in test [28], 760 nM; in test [29] it was 198 nM; in [30], 689 nM. In addition, the Kd in [31] was 224 nM; in test [32] it was 638 nM.
